# According to paper PMC7586219:
# Legend:
# [1] = target: Orbicella faveolata caspase-3b (Orbicella faveolata); assay: SEC; Superdex75 Increase 10/300GL; protein 1-5 mg/ml, 200 ul loaded; 30 mM potassium phosphate, pH 7.5, 1 mM DTT; column calibrated with the LMW calibration kit; protomer to dimer
# [2] = target: Porites astreoides caspase-3 (Porites astreoides); assay: as above
stoichiometry N [1],stoichiometry N [2],Substance
2,–,Orbicella faveolata caspase-3b (enzyme)
–,2,Porites astreoides caspase-3 (enzyme)
